Laboratory results reported in FireProtDB.
Values joined by “and” are separate entries in the source; they are usually repeats but may differ in a detail not shown here. Identical values can stand only once.

B1: Persulfide dioxygenase ETHE1, mitochondrial, O95571 (parent)
chain: MAEAVLRVARRQLSQRGGSGAPILLRQMFEPVSCTFTYLLGDRESREAVLIDPVLETAPRDAQLIKELGLRLLYAVNTHCHADHITGSGLLRSLLPGCQSVISRLSGAQADLHIEDGDSIRFGRFALETRASPGHTPGCVTFVLNDHSMAFTGDALLIRGCGRTDFQQGCAKTLYHSVHEKIFTLPGDCLIYPAHDYHGFTVSTVEEERTLNPRLTLSCEEFVKIMGNLNLPKPQQIDFAVPANMRCGVQTPTA
B2: Colicin-E1, P02978 (parent)
chain: METAVAYYKDGVPYDDKGQVIITLLNGTPDGSGSGGGGGKGGSKSESSAAIHATAKWSTAQLKKTQAEQAARAKAAAEAQAKAKANRDALTQRLKDIVNEALRHNASRTPSATELAHANNAAMQAEDERLRLAKAEEKARKEAEAAEKAFQEAEQRRKEIEREKAETERQLKLAEAEEKRLAALSEEAKAVEIAQKKLSAAQSEVVKMDGEIKTLNSRLSSSIHARDAEMKTLAGKRNELAQASAKYKELDELVKKLSPRANDPLQNRPFFEATRRRVGAGKIREEKQKQVTASETRINRINADITQIQKAISQVSNNRNAGIARVHEAEENLKKAQNNLLNSQIKDAVDATVSFYQTLTEKYGEKYSKMAQELADKSKGKKIGNVNEALAAFEKYKDVLNKKFSKADRDAIFNALASVKYDDWAKHLDQFAKYLKITGHVSFGYDVVSDILKIKDTGDWKPLFLTLEKKAADAGVSYVVALLFSLLAGTTLGIWGIAIVTGILCSYIDKNKLNTINEVLGI
B3: Dihydrofolate reductase type 2, P00383 (parent)
chain: MERSSNEVSNPVAGNFVFPSNATFGMGDRVRKKSGAAWQGQIVGWYCTNLTPEGYAVESEAHPGSVQIYPVAALERIN
B4: chitinase, Q54276 (parent)
chain: MSTRKAVIGYYFIPTNQINNYTETDTSVVPFPVSNITPAKAKQLTHINFSFLDINSNLECAWDPATNDAKARDVVNRLTALKAHNPSLRIMFSIGGWYYSNDLGVSHANYVNAVKTPASRAKFAQSCVRIMKDYGFDGVDIDWEYPQAAEVDGFIAALQEIRTLLNQQTITDGRQALPYQLTIAGAGGAFFLSRYYSKLAQIVAPLDYINLMTYDLAGPWEKVTNHQAALFGDAAGPTFYNALREANLGWSWEELTRAFPSPFSLTVDAAVQQHLMMEGVPSAKIVMGVPFYGRAFKGVSGGNGGQYSSHSTPGEDPYPSTDYWLVGCEECVRDKDPRIASYRQLEQMLQGNYGYQRLWNDKTKTPYLYHAQNGLFVTYDDAESFKYKAKYIKQQQLGGVMFWHLGQDNRNGDLLAALDRYFNAADYDDSQLDMGTGLRYTGVGPGNLPIMTAPAYVPGTTYAQGALVSYQGYVWQTKWGYITSAPGSDSAWLKVGRVA

Variants of: B1
Conditions: Homo sapiens; pH 7.5; Thermal; CD; Tris-HCl 50mM; NaCl 150mM; transition: 2; structure 4CHL; whole UniProt chain shown
With MAEAVLRVARRQLSQRGGSGAPILLRQMFEPVSCTFTYLLGDRESREAVLIDPVLETAPRDAQLIKELGLRLLYAVNTHCHADHITGSGLLRSLLPGCQSVISRLSGAQADLHIEDGDSIRFGRFALETRASPGHTPGCVTFVLNDHSMAFTGDALLIRGCGQTDFQQGCAKTLYHSVHEKIFTLPGDCLIYPAHDYHGFTVSTVEEERTLNPRLTLSCEEFVKIMGNLNLPKPQQIDFAVPANMRCGVQTPTA [R163Q] the Tm was 55 °C and the “change of melting temperature, mutant - wild type (higher = more stable)” value was -7 °C.

Variants of: B2
Conditions: Escherichia coli; pH 6; 22 °C; Urea; Fluorescence; dimethylglutaric acid 10 mM; NaCl 100 mM; reversible: yes; structure 2I88; whole UniProt chain shown
In the case of METAVAYYKDGVPYDDKGQVIITLLNGTPDGSGSGGGGGKGGSKSESSAAIHATAKWSTAQLKKTQAEQAARAKAAAEAQAKAKANRDALTQRLKDIVNEALRHNASRTPSATELAHANNAAMQAEDERLRLAKAEEKARKEAEAAEKAFQEAEQRRKEIEREKAETERQLKLAEAEEKRLAALSEEAKAVEIAQKKLSAAQSEVVKMDGEIKTLNSRLSSSIHARDAEMKTLAGKRNELAQASAKYKELDELVKKLSPRANDPLQNRPFFEATRRRVGAGKIREEKQKQVTASETRINRINADITQIQKAISQVSNNRNAGIARVHEAEENLKKAQNNLLNSQIKDAVDATVSFYQTLTEKYGEKYSKMAQELADKSKGKKIGNVNEALAAFEKYKDVLNKKFSKADRDAIFNALASVKYDDFAKHLDQFAKYLKITGHVSFGYDVVSDILKIKDTGDWKPLFLTLEKKAADAGVSYVVALLFSLLAGTTLGIFGIAIVTGILCSYIDKNKLNTINEVLGI [W424F W495F], the “denaturant midpoint (higher = more stable)” value (“denaturant midpoint” below) is reported as 6.1 M. With METAVAYYKDGVPYDDKGQVIITLLNGTPDGSGSGGGGGKGGSKSESSAAIHATAKWSTAQLKKTQAEQAARAKAAAEAQAKAKANRDALTQRLKDIVNEALRHNASRTPSATELAHANNAAMQAEDERLRLAKAEEKARKEAEAAEKAFQEAEQRRKEIEREKAETERQLKLAEAEEKRLAALSEEAKAVEIAQKKLSAAQSEVVKMDGEIKTLNSRLSSSIHARDAEMKTLAGKRNELAQASAKYKELDELVKKLSPRANDPLQNRPFFEATRRRVGAGKIREEKQKQVTASETRINRINADITQIQKAISQVSNNRNAGIARVHEAEENLKKAQNNLLNSQIKDAVDATVSFYQTLTEKYGEKYSKMAQELADKSKGKKIGNVNEALAAFEKYKDVLNKKFSKADRDAIFNALASVKYDDWAKHLDQFAKYLKITGHVSFGYDVVSDILKIKDTGDWKPLFLTLEKKAADAGVSYVVALLWSLLAGTTLGIWGIAIVTGILCSYIDKNKLNTINEVLGI [F484W] the “denaturant midpoint” value was 4.6 M. With METAVAYYKDGVPYDDKGQVIITLLNGTPDGSGSGGGGGKGGSKSESSAAIHATAKWSTAQLKKTQAEQAARAKAAAEAQAKAKANRDALTQRLKDIVNEALRHNASRTPSATELAHANNAAMQAEDERLRLAKAEEKARKEAEAAEKAFQEAEQRRKEIEREKAETERQLKLAEAEEKRLAALSEEAKAVEIAQKKLSAAQSEVVKMDGEIKTLNSRLSSSIHARDAEMKTLAGKRNELAQASAKYKELDELVKKLSPRANDPLQNRPFFEATRRRVGAGKIREEKQKQVTASETRINRINADITQIQKAISQVSNNRNAGIARVHEAEENLKKAQNNLLNSQIKDAVDATVSFYQTLTEKYGEKYSKMAQELADKSKGKKIGNVNEALAAFEKYKDVLNKKWSKADRDAIFNALASVKYDDWAKHLDQFAKYLKITGHVSFGYDVVSDILKIKDTGDWKPLFLTLEKKAADAGVSYVVALLFSLLAGTTLGIWGIAIVTGILCSYIDKNKLNTINEVLGI [F404W] the “denaturant midpoint” value was 4.8 M. With METAVAYYKDGVPYDDKGQVIITLLNGTPDGSGSGGGGGKGGSKSESSAAIHATAKWSTAQLKKTQAEQAARAKAAAEAQAKAKANRDALTQRLKDIVNEALRHNASRTPSATELAHANNAAMQAEDERLRLAKAEEKARKEAEAAEKAFQEAEQRRKEIEREKAETERQLKLAEAEEKRLAALSEEAKAVEIAQKKLSAAQSEVVKMDGEIKTLNSRLSSSIHARDAEMKTLAGKRNELAQASAKYKELDELVKKLSPRANDPLQNRPFFEATRRRVGAGKIREEKQKQVTASETRINRINADITQIQKAISQVSNNRNAGIARVHEAEENLKKAQNNLLNSQIKDAVDATVSFYQTLTEKYGEKYSKMAQELADKSKGKKIGNVNEALAAFEKYKDVLNKKFSKADRDAIFNALASVKYDDWAKHLDQFAKYLKITGHVSWGYDVVSDILKIKDTGDWKPLFLTLEKKAADAGVSYVVALLFSLLAGTTLGIWGIAIVTGILCSYIDKNKLNTINEVLGI [F443W] the “denaturant midpoint” value was 5.5 M. In the case of METAVAYYKDGVPYDDKGQVIITLLNGTPDGSGSGGGGGKGGSKSESSAAIHATAKWSTAQLKKTQAEQAARAKAAAEAQAKAKANRDALTQRLKDIVNEALRHNASRTPSATELAHANNAAMQAEDERLRLAKAEEKARKEAEAAEKAFQEAEQRRKEIEREKAETERQLKLAEAEEKRLAALSEEAKAVEIAQKKLSAAQSEVVKMDGEIKTLNSRLSSSIHARDAEMKTLAGKRNELAQASAKYKELDELVKKLSPRANDPLQNRPFFEATRRRVGAGKIREEKQKQVTASETRINRINADITQIQKAISQVSNNRNAGIARVHEAEENLKKAQNNLLNSQIKDAVDATVSFYQTLTEKYGEKYSKMAQELADKSKGKKIGNVNEALAAFEKYKDVLNKKFSKADRDAIFNALASVKYDDWAKHLDQWAKYLKITGHVSFGYDVVSDILKIKDTGDWKPLFLTLEKKAADAGVSYVVALLFSLLAGTTLGIWGIAIVTGILCSYIDKNKLNTINEVLGI [F431W], the “denaturant midpoint” value is reported as 5.8 M.

Variants of: B3
Conditions: Escherichia coli; pH 5; 22 °C; GdnHCl; CD; phosphate 10 mM; structure 1VIE; whole UniProt chain shown
For MERSSNEVSNPVAGNFVFPSNATFGMGDRVRKKSGAAFQGQIVGWYCTNLTPEGYAVESEAHPGSVQIYPVAALERIN [W38F], the unfolding free energy was 15.3 kcal/mol and 15.6 kcal/mol. In the case of MERSSNEVSNPVAGNFVFPSNATFGMGDRVRKKSGAAWQGQIVGFYCTNLTPEGYAVESEAHPGSVQIYPVAALERIN [W45F], the unfolding free energy is reported as 13.6 kcal/mol and 12.7 kcal/mol.

Variants of: B4
Conditions: Serratia marcescens; pH 8; Thermal; CD; sodium phosphate 20 mM; reversible: No; structure 1E6N; whole UniProt chain shown
With MSTRKAVIGYYFIPTNQINNYTETDTSVVPFPVSNITPAKAKQLTHINFSFLDINSNLECAWDPATNDAKARDVVNRLTALKAHNPSLRIMFSIGGWYYSNDLGVSHANYVNAVKTPASRAKFAQSCVRIMKDYGFDGVDIDWEYPQAAEVDGFIAALQEIRTLLNQQTITDGRQALPYQLTIAGAGAAFFLSRYYSKLAQIVAPLDYINLMTYDLAGPWEKVTNHQAALFGDPAGPTFYNALREANLGWSWEELTRAFPSPFSLTVDAAVQQHLMMEGVPSAKIVMGVPFYGRAFKGVSGGNGGQYSSHSTPGEDPYPSTDYWLVGCEECVRDKDPRIASYRQLEQMLQGNYGYQRLWNDKTKTPYLYHAQNGLFVTYDDAESFKYKAKYIKQQQLGGVMFWHLGQDNRNGDLLAALDRYFNAADYDDSQLDMGTGLRYTGVGPGNLPIMTAPAYVPGTTYAQGALVSYQGYVWQTKWGYITSAPGSDSAWLKVGRVA [G188A A234P] the Tm was 64.1 °C and the “change of melting temperature, mutant - wild type (higher = more stable)” value was 4.2 °C.
